Patent publication US12509709B2, “Methods for making L-glufosinate” (BASF SE, priority 2016, dated 2025)

Assays:
[1] = tested on: weeds; conditions: EP 0030424; cited from earlier work
[2] = Conversion of PPO to L-glufosinate with isopropylamine as amine donor; format: biochemical; conditions: 0.25 mg/mL TA, 25 mM PPO, 250 mM isopropylamine, pH 8.0, 25 to 30° C.
Protocol: Isopropylamine can be used as an amine donor for conversion of PPO to L-glufosinate with the use of an appropriate TA. PPO was converted to L-glufosinate in a reaction with the following components: • 0.25 mg/mL TA encoded by SEQ ID NO: 1 • 25 mM PPO • 0.2 mM pyridoxal phosphate • 250 mM isopropylamine (pHed to 8 w/H3PO4) • 100 mM Kphos buffer pH 8.0
The reaction was incubated at 25 to 30° C. for 30 hours with gentle shaking (250 rpm). At 0 hours, the amount of L-glufosinate as measured by HPLC was 0 mM, at 20 hours it was 14 mM, and at 30 hours it was 18 mM.

[3] = Conversion of PPO to L-glufosinate with lysine as amine donor; format: biochemical; conditions: over 20 hours; 0.4 mg/mL gabT, 25 mM PPO, 75 mM L-Lysine, pH 8.0, 30° C.
Protocol: Lysine can be used as an amine donor for conversion of PPO to L-glufosinate with the use of an appropriate TA. PPO was converted to L-glufosinate in a reaction with the following components: • 0.4 mg/mL gabT (purified as in Example 3) • 25 mM PPO (pHed to 8 w/NaOH) • 0.2 mM pyridoxal phosphate • 75 mM L-Lysine dihydrochloride (pHed to 8 w/NaOH) • 100 mM Kphos buffer pH 8.0
The reaction was incubated at 30° C. for 20 hours with shaking (250 rpm). L-glufosinate was formed at a rate of 0.4 mM/hr over the 20 hours.

For `CP(=O)(O)CCC(=O)C(=O)O` [PPO, 2-oxo-4-(hydroxy(methyl)phosphinoyl)butyric acid], which herbicidal activity [1] is on record?
The herbicidal activity was “can contribute herbicidal activity”.

B1: TA encoded by SEQ ID NO: 1: transaminase with the amino acid sequence of SEQ ID NO: 1 (protein, listed as Sinorhizobium arboris)
chain: MNIAAQSWERREATSFFHTFTDLPSLKTDGPVIIDHGEGPYIIDTVGRRYFEGNSGLWNMTLGFSERRLSDAALKQYQEFPGYHTFFGRNSKPTVELAERMLKLAPAPMSRVFFTNSGSEANESIVKLLWMMWAAEGRPERRKLLTRKNAYHGATVMASALTGKDYVKAFGLPGPEIVTLDCPHAWRFALPGEGDDEFAARLAANLETRILQEGPETIAGMFAEPVMGAGGVIVPPATYFAKIQPVLQRYGIPLIADEVICGFGRTGSLWGTLAVGQQPDIIVASKSMSAGYFPMGAVMLSADIDKRATAASEVWEEFPHGFTTGGHPVGCAISLEAIRIITEEGVFENVKSVSETFQSGLRALADHPMIGEARGMGLMGALETVADKKTKQSFSGDLRIGERISKEARDRGFIIRPLGSSVVLAPPFISTHGQIEELLAVLKEVLDVVYGTVKGEVA
modifications: Sinorhizobium arboris sp. nov.
Which results are given for B1?
amount of L-glufosinate formed (HPLC) ([2]; at 20 hours): 14 mM; amount of L-glufosinate formed (HPLC) ([2]; at 30 hours): 18 mM

B2: gabT: gabT transaminase from Escherichia coli (UniProt P22256; SEQ ID NO: 3) (protein, listed as Escherichia coli)
chain: MNSNKELMQRRSQAIPRGVGQIHPIFADRAENCRVWDVEGREYLDFAGGIAVLNTGHLHPKVVAAVEAQLKKLSHTCFQVLAYEPYLELCEIMNQKVPGDFAKKTLLVTTGSEAVENAVKIARAATKRSGTIAFSGAYHGRTHYTLALTGKVNPYSAGMGLMPGHVYRALYPCPLHGISEDDAIASIHRIFKNDAAPEDIAAIVIEPVQGEGGFYASSPAFMQRLRALCDEHGIMLIADEVQSGAGRTGTLFAMEQMGVAPDLTTFAKSIAGGFPLAGVTGRAEVMDAVAPGGLGGTYAGNPIACVAALEVLKVFEQENLLQKANDLGQKLKDGLLAIAEKHPEIGDVRGLGAMIAIELFEDGDHNKPDAKLTAEIVARARDKGLILLSCGPYYNVLRILVPLTIEDAQIRQGLEIISQCFDEAKQ
Which “rate of L-glufosinate formation” value [3] does the source give for B2 here?
Its value is 0.4 mM/h.
